T1: PUF4 RNA-binding domain (Saccharomyces cerevisiae, UniProt P25339 537-888)
T1 sequence: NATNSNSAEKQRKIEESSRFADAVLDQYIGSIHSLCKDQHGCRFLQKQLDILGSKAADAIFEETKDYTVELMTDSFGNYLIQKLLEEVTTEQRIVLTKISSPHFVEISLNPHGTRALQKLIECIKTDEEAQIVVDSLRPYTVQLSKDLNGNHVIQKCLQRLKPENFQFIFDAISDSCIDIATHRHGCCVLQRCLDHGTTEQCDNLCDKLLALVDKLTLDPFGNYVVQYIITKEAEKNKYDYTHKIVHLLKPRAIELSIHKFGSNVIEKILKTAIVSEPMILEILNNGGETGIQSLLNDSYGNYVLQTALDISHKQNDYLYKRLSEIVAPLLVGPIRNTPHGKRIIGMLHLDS


Target: T1, PUF4 RNA-binding domain
Experiment: Mg; RNA-MaP; 20 mM Na-HEPES pH 7.4, 30 mM KOAc, 0.75 mM MgCl2, 0.1% Tween-20, 5% glycerol, 0.1 mg/mL BSA, 2 mM DTT; 25 C; 0.0125-409.6 nM protein
Conditions: tags: N-His6-TEV cleaved; C-SNAP kept, Cy3B-labelled; label: tethered on chip by stalled RNA polymerase

Binder | Kd
UCUCUUUGUAGCCGUCUCUU (ssRNA) [Ic_S1_P3E.1_K3.1_C3.1_H3.1_A3.1_[T5G]_[A6C]_F3.1_[T7C]_[A8G]_T3.1] | > 2.3 µM
UCUCUUUGUAGCAAUCUCUU (ssRNA) [Ic_S1_P3E.1_K3.1_C3.1_H3.1_A3.1_[T5G]_[A6C]_F3.1_[T7A]_T3.1] | 1.05 µM
Ic_S4_P4E.1_K4.1_C4.1_H4.1_A4.1_[T7G]_F4.1_T4.1 (ssRNA) RNA: UUUGACAACUGAUCGUUCUUUCUUGUAUAGUAUUCUUUCUCGAUCAGUUGUCUUU | 0.00166 µM
Ia_S4_P4E.1_K4.1_C4.1_H4.1_A4.1_[T7A]_F4.1_T4.1 (ssRNA) RNA: UUUGACAACUGAUCGUUCUUUCUUGUAUAAUAUUCUUUCUCGAUCAGUUGUCUUU | 0.00123 µM
Ia_S4_P4E.1_K4.1_C4.1_H4.1_A4.1_[T7C]_F4.1_T4.1 (ssRNA) RNA: UUUGACAACUGAUCGUUCUUUCUUGUAUACUAUUCUUUCUCGAUCAGUUGUCUUU | 0.000516 µM
UCUCUUUGUAGCUUUCUCUU (ssRNA) [Ic_S1_P3E.1_K3.1_C3.1_H3.1_A3.1_[T5G]_[A6C]_F3.1_[A8T]_T3.1] | 0.296 µM
UCUCUUUGUAGCCAUCUCUU (ssRNA) [Ic_S1_P3E.1_K3.1_C3.1_H3.1_A3.1_[T5G]_[A6C]_F3.1_[T7C]_T3.1] | 1.85 µM
UCUCUUUGUAGCUGUCUCUU (ssRNA) [Ic_S1_P3E.1_K3.1_C3.1_H3.1_A3.1_[T5G]_[A6C]_F3.1_[A8G]_T3.1] | 0.864 µM
UCUCUUUGUAGUGUUCUCUU (ssRNA) [Ic_S1_P3E.1_K3.1_C3.1_H3.1_A3.1_[T5G]_[A6T]_F3.1_[T7G]_[A8T]_T3.1] | 0.659 µM
UCUCUUUGUUUAUAUCUCUU (ssRNA) [Ia_S1_P3E.1_K3.1_C3.1_H3.1_[A4T]_A3.1_F3.1_T3.1] | 0.478 µM
UCUCUUUGUAGUCCUCUCUU (ssRNA) [Ic_S1_P3E.1_K3.1_C3.1_H3.1_A3.1_[T5G]_[A6T]_F3.1_[T7C]_[A8C]_T3.1] | 2 µM
UCUCUUUGUAGCAUUCUCUU (ssRNA) [Ic_S1_P3E.1_K3.1_C3.1_H3.1_A3.1_[T5G]_[A6C]_F3.1_[T7A]_[A8T]_T3.1] | 0.0424 µM
UCUCUUUGUAGUGCUCUCUU (ssRNA) [Ic_S1_P3E.1_K3.1_C3.1_H3.1_A3.1_[T5G]_[A6T]_F3.1_[T7G]_[A8C]_T3.1] | > 2.3 µM
UCUCUUUGUAGCGUUCUCUU (ssRNA) [Ic_S1_P3E.1_K3.1_C3.1_H3.1_A3.1_[T5G]_[A6C]_F3.1_[T7G]_[A8T]_T3.1] | 1.51 µM
UCUCUUUGUAGCAGUCUCUU (ssRNA) [Ic_S1_P3E.1_K3.1_C3.1_H3.1_A3.1_[T5G]_[A6C]_F3.1_[T7A]_[A8G]_T3.1] | 1.74 µM
Ib_S4_P5E.1_K5.1_C5.1_H5.1_[G2C]_A5.1_[T5A]_F5.1_T5.1 (ssRNA) RNA: UUUGACAACUGAUCGUUCUUUCUUCUAAUAUUAUUCUUUCUCGAUCAGUUGUCUUU | > 2.3 µM
Ic_S4_P5E.1_K5.1_C5.1_H5.1_A5.1_[T6G]_[A7C]_F5.1_T5.1 (ssRNA) RNA: UUUGACAACUGAUCGUUCUUUCUUGUAUGCUUAUUCUUUCUCGAUCAGUUGUCUUU | 0.0125 µM
Ib_S4_P5E.1_K5.1_C5.1_H5.1_A5.1_[T5A]_[A7G]_F5.1_T5.1 (ssRNA) RNA: UUUGACAACUGAUCGUUCUUUCUUGUAAUGUUAUUCUUUCUCGAUCAGUUGUCUUU | 0.0153 µM
Ib_S4_P5E.1_K5.1_C5.1_H5.1_[G2T]_A5.1_[A7C]_F5.1_T5.1 (ssRNA) RNA: UUUGACAACUGAUCGUUCUUUCUUUUAUUCUUAUUCUUUCUCGAUCAGUUGUCUUU | > 2.3 µM
Ib_S4_P5E.1_K5.1_C5.1_H5.1_A5.1_[T6A]_[A7C]_F5.1_T5.1 (ssRNA) RNA: UUUGACAACUGAUCGUUCUUUCUUGUAUACUUAUUCUUUCUCGAUCAGUUGUCUUU | 0.00242 µM
Ib_S4_P5E.1_K5.1_C5.1_H5.1_[A4C]_A5.1_[A7C]_F5.1_T5.1 (ssRNA) RNA: UUUGACAACUGAUCGUUCUUUCUUGUCUUCUUAUUCUUUCUCGAUCAGUUGUCUUU | 0.0838 µM
Ib_S4_P5E.1_K5.1_C5.1_H5.1_A5.1_[T6C]_[A7C]_F5.1_T5.1 (ssRNA) RNA: UUUGACAACUGAUCGUUCUUUCUUGUAUCCUUAUUCUUUCUCGAUCAGUUGUCUUU | 0.00455 µM
Ib_S4_P5E.1_K5.1_C5.1_H5.1_A5.1_[T5A]_[A7T]_F5.1_T5.1 (ssRNA) RNA: UUUGACAACUGAUCGUUCUUUCUUGUAAUUUUAUUCUUUCUCGAUCAGUUGUCUUU | 0.00523 µM
Ib_S4_P5E.1_K5.1_C5.1_H5.1_[G2A]_A5.1_[A7G]_F5.1_T5.1 (ssRNA) RNA: UUUGACAACUGAUCGUUCUUUCUUAUAUUGUUAUUCUUUCUCGAUCAGUUGUCUUU | 0.904 µM
Ie_S4_P4E.1_K4.1_C4.1_H4.1_[+3T]_A4.1_F4.1_T4.1 (ssRNA) RNA: UUUGACAACUGAUCGUUCUUUCUUGUUAUAUUAUUCUUUCUCGAUCAGUUGUCUUU | 0.00586 µM
Ib_S4_P5E.1_K5.1_C5.1_H5.1_[G2T]_A5.1_[T5C]_F5.1_T5.1 (ssRNA) RNA: UUUGACAACUGAUCGUUCUUUCUUUUACUAUUAUUCUUUCUCGAUCAGUUGUCUUU | > 2.3 µM

Binder | Kd
Ib_S4_P5E.1_K5.1_C5.1_H5.1_[A4C]_A5.1_[T5C]_F5.1_T5.1 (ssRNA) RNA: UUUGACAACUGAUCGUUCUUUCUUGUCCUAUUAUUCUUUCUCGAUCAGUUGUCUUU | 0.0199 µM
Ib_S4_P5E.1_K5.1_C5.1_H5.1_[G2C]_A5.1_[T6C]_F5.1_T5.1 (ssRNA) RNA: UUUGACAACUGAUCGUUCUUUCUUCUAUCAUUAUUCUUUCUCGAUCAGUUGUCUUU | 1.94 µM
Ib_S4_P5E.1_K5.1_C5.1_H5.1_[G2A]_A5.1_[T5G]_F5.1_T5.1 (ssRNA) RNA: UUUGACAACUGAUCGUUCUUUCUUAUAGUAUUAUUCUUUCUCGAUCAGUUGUCUUU | 1.94 µM
Ib_S4_P5E.1_K5.1_C5.1_H5.1_[T3C]_A5.1_[A7T]_F5.1_T5.1 (ssRNA) RNA: UUUGACAACUGAUCGUUCUUUCUUGCAUUUUUAUUCUUUCUCGAUCAGUUGUCUUU | 0.414 µM
Ib_S4_P5E.1_K5.1_C5.1_H5.1_[G2A]_A5.1_[T6A]_F5.1_T5.1 (ssRNA) RNA: UUUGACAACUGAUCGUUCUUUCUUAUAUAAUUAUUCUUUCUCGAUCAGUUGUCUUU | 0.696 µM
Ib_S4_P5E.1_K5.1_C5.1_H5.1_[T3C]_A5.1_[A7G]_F5.1_T5.1 (ssRNA) RNA: UUUGACAACUGAUCGUUCUUUCUUGCAUUGUUAUUCUUUCUCGAUCAGUUGUCUUU | 1.52 µM
Ib_S4_P5E.1_K5.1_C5.1_H5.1_A5.1_[T6A]_[A7G]_F5.1_T5.1 (ssRNA) RNA: UUUGACAACUGAUCGUUCUUUCUUGUAUAGUUAUUCUUUCUCGAUCAGUUGUCUUU | 0.0106 µM
Ia_S4_P5E.1_K5.1_C5.1_H5.1_A5.1_F5.1_[T8A]_T5.1 (ssRNA) RNA: UUUGACAACUGAUCGUUCUUUCUUGUAUUAAUAUUCUUUCUCGAUCAGUUGUCUUU | 0.00615 µM
Ib_S4_P5E.1_K5.1_C5.1_H5.1_[T3C]_A5.1_[T5A]_F5.1_T5.1 (ssRNA) RNA: UUUGACAACUGAUCGUUCUUUCUUGCAAUAUUAUUCUUUCUCGAUCAGUUGUCUUU | 0.872 µM
Ib_S4_P5E.1_K5.1_C5.1_H5.1_[G2C]_A5.1_[T6A]_F5.1_T5.1 (ssRNA) RNA: UUUGACAACUGAUCGUUCUUUCUUCUAUAAUUAUUCUUUCUCGAUCAGUUGUCUUU | > 2.3 µM
Ia_S4_P5E.1_K5.1_C5.1_H5.1_A5.1_F5.1_[T9C]_T5.1 (ssRNA) RNA: UUUGACAACUGAUCGUUCUUUCUUGUAUUAUCAUUCUUUCUCGAUCAGUUGUCUUU | 0.072 µM
Ib_S4_P5E.1_K5.1_C5.1_H5.1_[T3C]_A5.1_[A7C]_F5.1_T5.1 (ssRNA) RNA: UUUGACAACUGAUCGUUCUUUCUUGCAUUCUUAUUCUUUCUCGAUCAGUUGUCUUU | 1.63 µM
Ib_S4_P5E.1_K5.1_C5.1_H5.1_A5.1_[T5C]_[A7T]_F5.1_T5.1 (ssRNA) RNA: UUUGACAACUGAUCGUUCUUUCUUGUACUUUUAUUCUUUCUCGAUCAGUUGUCUUU | 0.00171 µM
Ib_S4_P5E.1_K5.1_C5.1_H5.1_A5.1_[T5C]_[T6C]_F5.1_T5.1 (ssRNA) RNA: UUUGACAACUGAUCGUUCUUUCUUGUACCAUUAUUCUUUCUCGAUCAGUUGUCUUU | 0.0017 µM
Ib_S4_P5E.1_K5.1_C5.1_H5.1_[G2T]_A5.1_[T5A]_F5.1_T5.1 (ssRNA) RNA: UUUGACAACUGAUCGUUCUUUCUUUUAAUAUUAUUCUUUCUCGAUCAGUUGUCUUU | > 2.3 µM
Ib_S4_P5E.1_K5.1_C5.1_H5.1_A5.1_[T5C]_[T6A]_F5.1_T5.1 (ssRNA) RNA: UUUGACAACUGAUCGUUCUUUCUUGUACAAUUAUUCUUUCUCGAUCAGUUGUCUUU | 0.00397 µM
Ib_S4_P5E.1_K5.1_C5.1_H5.1_[A4C]_A5.1_[A7G]_F5.1_T5.1 (ssRNA) RNA: UUUGACAACUGAUCGUUCUUUCUUGUCUUGUUAUUCUUUCUCGAUCAGUUGUCUUU | 0.112 µM
Ie_S4_P4E.1_K4.1_C4.1_H4.1_[+3C]_A4.1_F4.1_T4.1 (ssRNA) RNA: UUUGACAACUGAUCGUUCUUUCUUGUCAUAUUAUUCUUUCUCGAUCAGUUGUCUUU | 0.00586 µM
Ib_S4_P5E.1_K5.1_C5.1_H5.1_[T3C]_A5.1_[T5C]_F5.1_T5.1 (ssRNA) RNA: UUUGACAACUGAUCGUUCUUUCUUGCACUAUUAUUCUUUCUCGAUCAGUUGUCUUU | 0.204 µM
Ib_S4_P5E.1_K5.1_C5.1_H5.1_[A4T]_A5.1_[T6A]_F5.1_T5.1 (ssRNA) RNA: UUUGACAACUGAUCGUUCUUUCUUGUUUAAUUAUUCUUUCUCGAUCAGUUGUCUUU | 0.016 µM
Ib_S4_P5E.1_K5.1_C5.1_H5.1_[A4C]_A5.1_[T5G]_F5.1_T5.1 (ssRNA) RNA: UUUGACAACUGAUCGUUCUUUCUUGUCGUAUUAUUCUUUCUCGAUCAGUUGUCUUU | 0.0344 µM
UCUCUUUGUAGUCUUCUCUU (ssRNA) [Ic_S1_P3E.1_K3.1_C3.1_H3.1_A3.1_[T5G]_[A6T]_F3.1_[T7C]_[A8T]_T3.1] | 0.513 µM
UCUCUUUGUAGUCGUCUCUU (ssRNA) [Ic_S1_P3E.1_K3.1_C3.1_H3.1_A3.1_[T5G]_[A6T]_F3.1_[T7C]_[A8G]_T3.1] | > 2.3 µM
UCUCUUUGUAGCUCUCUCUU (ssRNA) [Ic_S1_P3E.1_K3.1_C3.1_H3.1_A3.1_[T5G]_[A6C]_F3.1_[A8C]_T3.1] | > 2.3 µM
UCUCUUUGUAGUACUCUCUU (ssRNA) [Ic_S1_P3E.1_K3.1_C3.1_H3.1_A3.1_[T5G]_[A6T]_F3.1_[T7A]_[A8C]_T3.1] | 1.21 µM
UCUCUUUGUAGUCAUCUCUU (ssRNA) [Ic_S1_P3E.1_K3.1_C3.1_H3.1_A3.1_[T5G]_[A6T]_F3.1_[T7C]_T3.1] | 2.02 µM

Reference: article PMC9352680, “A comprehensive thermodynamic model for RNA binding by the Saccharomyces cerevisiae Pumilio protein PUF4”
